Measurements reported in paper PMC4039619 (Matrix biology : journal of the International Society for …, 2014).

Biological target: human recombinant IR-A extracellular domain (Met 1-Lys 944) with C-terminal polyhistidine tag (human, UniProt P06213-2 28-944)
Assay: ELISA

Kd: 7.8 nM
B1: human recombinant decorin protein core (natural protein, UniProt P07585 31-359, looked up)
chain: DEASGIGPEVPDDRDFEPSLGPVCPFRCQCHLRVVQCSDLGLDKVPKDLPPDTTLLDLQNNKITEIKDGDFKNLKNLHALILVNNKISKVSPGAFTPLVKLERLYLSKNQLKELPEKMPKTLQELRAHENEITKVRKVTFNGLNQMIVIELGTNPLKSSGIENGAFQGMKKLSYIRIADTNITSIPQGLPPSLTELHLDGNKISRVDAASLKGLNNLAKLGLSFNSISAVDNGSLANTPHLRELHLDNNKLTRVPGGLAEHKYIQVVYLHNNNISVVGSSDFCPPGHNTKKASYSGVSLFSNPVQYWEIQPSTFRCVYVRSAIQLGNYK
